What was measured:
[1] = target: T1, GPIIb/IIIa on human platelets (Homo sapiens, UniProt P05106+P08514); experiment: Flow cytometry: binding to human platelets; conditions: for binding to human activated platelets: 20 μM ADP
T1 construct: endogenous in cells
Protocol: (§1) Human blood was collected by venipuncture with a 21-gauge butterfly needle from healthy volunteers and anticoagulated with citric acid. Platelet-rich plasma (PRP) was obtained by centrifugation (GS-6R centrifuge, Beckman Coulter) at 100×g at room temperature for 10 min.
(§2) Human PRP was diluted 1/50 in modified Tyrode's buffer containing 2 mM MgCl2 and 2 mM CaCl2. Platelets were either activated by addition of 20 μM ADP, or non activated, followed by the incubation with 15 and 50 μg/mL EMP-scFv fusion protein or EMP at 22° C., 32° C. and at 37° C. for 15 min. Mouse platelets were either pre-activated for 10 min by addition of 0.1 U/mL thrombin (Enzyme Research Laboratories), or non activated, before the incubation with 15 and 50 μg/mL of EMP-scFv fusion protein at 22° C., 32° C. or 37° C. for 15 min. In both, human and mouse samples, EMP-scFv was detected via 15 min in-dark incubation with secondary antibody (Penta-His Alexa Fluor 488, Qiagen) directed against the His(6)-tag of the single-chain antibody.
In re-warming experiments, activated and non-activated diluted human PRP was incubated with 15 and 50 μg/mL of EMP-scFv for 15 minutes at 22° C., followed by a 15-min in dark incubation with secondary Penta-His Alexa Fluor 488 antibody. Half of the reaction was then fixed with 1× Cell FIX, while the other half was incubated at 37° C. for either 15 or 30 minutes, before being fixed and measured in FACS.

[2] = target: T1, GPIIb/IIIa on human platelets; experiment: Flow cytometry: inhibition of fibrinogen binding to human platelets; type: cell-based
Protocol: as §1, §2
Fibrinogen binding to human activated platelets in the presence of EMP-scFv was determined with a polyclonal rabbit anti-human fibrinogen FITC-labelled antibody (DakoCytomation), while the effects of EMP-scFv on fibrinogen binding to mouse platelets were determined using FITC-conjugated rabbit anti-fibrinogen polyclonal antibody (Cemfret). Fluorescence detection was performed as described above. Samples were measured in a FACSCalibur® flow cytometer (Becton Dickinson), after fixation with 1× CellFIX® (Becton Dickinson).

human platelets = experiment: Flow cytometry: platelet activation (PAC-1 binding, P-selectin expression); type: cell-based; conditions: human diluted PRP, 22° C.
Protocol: Effects of EMP-scFv on platelet activation were addressed by incubating human diluted PRP with 15 and 50 μg/mL of EMP-scFv at 22° C. for 15 minutes, followed by the addition of either PAC-1 or CD62P antibodies and in-dark incubation for 15 minutes. The reactions were fixed and levels of PAC-1 binding and P-Selectin expression analysed in FACS.

[3] = tested on: activated human platelets; experiment: Microscopic analysis of platelet aggregates; type: cell-based; conditions: 22° C.
Protocol: For the microscopic analysis of platelet aggregates at different temperatures, non-diluted human PRP was placed onto a glass slide and ADP was added to a final concentration of 20 μM, in the presence and absence of EMP-scFv (50 μg/mL). Abciximab was used as a positive control at a concentration of 10 μg/mL. The experiments were conducted at 22° C. and 37° C. Phase contrast microscopy images were taken using an Olympus CKX41 microscope.

platelet aggregates = experiment: Flow chamber: binding to platelet aggregates under physiological flow; type: cell-based; conditions: hypothermic temperatures
Protocol: Temperature-dependent binding of EMP-scFv to platelet aggregates was analysed using a flow chamber system. Vitrotubes rectangular capillaries (0.20×2.0 mm) were washed with 70% ethanol, dried, and coated overnight with 10 μg/ml of collagen (Collagen Reagent Horm Nycomed). Liquid was entered into the capillary via capillary drag. Capillaries were blocked for 1 hour with 1% BSA and then washed with PBS. The capillary was connected on the one end to a reservoir and on the other end to a Harvard medical pump by tubing. Before connecting the capillary all tubes were flushed with PBS in order to avoid air bubbles entering the capillary. PRP was then drawn into the capillary and numerous platelet aggregates were formed within 10 minutes. The capillary was then washed with PBS via the pump. In the meantime, the EMP-scFv (50 μg/mL) was incubated with PENTA-HIS Alexa Fluor 488 (Qiagen) antibody for 10 minutes in a final volume of 1 mL, and then drawn into the capillary containing platelet aggregates at physiological flow rate of 60s^−1. The capillary was then imaged with a 20× magnification objective, after which DIC and fluorescent images were captured using Olympus IX81 microscope with XM10 camera. The experiments were conducted at 22° C. and 37° C.

[4] = tested on: carotid artery thrombosis; experiment: Ferric chloride-induced mouse carotid artery thrombosis model; type: in vivo; conditions: compared to the control group
Protocol: C57BL/6 mice weighing from 20-25 g were used. Care and use of laboratory animals followed the national guidelines and were approved by the institutional animal care and ethics committees. Mice were anesthetized with isoflurane, following an intra-peritoneal injection with ketamine (100 mg/kg BW) and xylazine (20 mg/kg BW). The body core temperature was monitored with a digital thermometer, and controlled at either 28° C. or 37° C. with a thermal pad (Temperature Controller TR-200, Fine Science Tools Inc.). Reducing the body temperature to 28° C. was achieved by a gradual drop, at a rate of 0.3-0.4° C./min. The mice on the thermal pad were placed under a dissecting microscope (SZ61, Olympus). An incision of the skin was made directly on the top of trachea, and vessels used for experiment were bluntly isolated from surrounding tissues. […] After rinsing with normal saline, a nano-Doppler flow probe (0.5 VB, Transonic) was then positioned over the vessel and the blood flow rate (ml/min) was measured by a transit-time perivascular flow-meter (TS420, Transonic Systems Inc.). […] Jugular vein blood flow was recorded 15 minutes after induction of injury in mice pre-treated with EMP-scFv, eptifibatide or saline. The blood flow recorded at 1 minute was considered as the initial blood flow rate. […]

binding to human activated platelets ([1]; 22° C.): significantly higher level | binding to human activated platelets ([1]; 37° C.): totally abolished | dissociation from GPIIb/IIIa upon re-warming ([1]; bound to activated platelets at 22° C., then temperature increased to 37° C.): did not dissociate | binding to resting platelets ([1]; human, regardless of the temperature): No binding | fibrinogen binding to human activated platelets ([2]; 22° C., concentration-dependent): significantly reduced | fibrinogen binding to human activated platelets ([2]; 32° C.): inhibit the binding of fibrinogen | fibrinogen binding to human activated platelets ([2]; 37° C.): not inhibited
B1: EMP-scFv: fusion of elastin mimetic polypeptide (EMP) and activation-specific GPIIb/IIIa-blocking single-chain antibody; 704 amino acids, approximately 70 kDa (protein)
chain: MAVPAVGIPAVGIPAVGIPAVGIPAVGIPAVGIPAVGIPAVGIPAVGIPAVGIPAVGIPAVGIPAVGIPAVGIPAVGIPAVGIPAVGIPAVGIPAVGIPAVGIPAVGIPAVGIPAVGIPAVGIPAVGIPAVGIPAVGIPAVGIPAVGIPAVGIPAVGIPAVGIPAVGIPAVGIPAVGIPAVGIPAVGIPAVGIPAVGIPAVGIPAVGIPAVGIPAVGIPAVGIPAVGIPAVGIPAVGIPAVGIPAVGIPAVGIPAVGIPAVGIPAVGIPAVGIPAVGIPAVGIPAVGIPAVGIPAVGIPAVGIPAVGIPAVGIPAVGIPAVGIPAVGIPAVGIPAVGIPAVGIPAVGIPAVGIPAVGIPAVGIPAVGIPAVGIPAVGIPAVGIPAVGIPAVGIPAVGIPAVGIPGGGGSMMAEVQLVESGGGLVQPGGSLRLSCAASGFMFSRYAMSWVRQAPGKGPEWVSGISGSGGSTYYADSVKGRFTVSRDNSKNTLYLQMNSLRAEDTAVYYCARIFTHRSRGDVPDQTSFDYWGQGTLVTVSSGSASAPKLEEGEFSEARVSSELTQDPAVSVALGQTVRITCQGDSLRNFYASWYQQKPGQAPTLVIYGLSKRPSGIPDRFSASSSGNTASLTITGAQAEDEADYYCLLYYGGGQQGVFGGGTKLTVLRQPKAAPSVTLFPPSSAAAGSEQKLISEEDLNSHHHHHH
platelet activation: P-selectin expression (human platelets): no effect | platelet activation: binding of PAC-1 (human platelets): no effect | aggregation of activated human platelets (microscopy) [3]: inhibited aggregation | binding to platelet aggregates under flow (platelet aggregates): induced binding | occlusion time ([4]; 28° C.): significantly prolonged | occlusion time ([4]; 37° C.): remained unchanged
